Numbering of substitutions follows the chain as printed.

Experimental findings from patent US20130012436A1 (Bristol-Myers Squibb, published 2013) are described below.

In test [1] the target is T1, human IL-23 (human, UniProt Q9NPF7 20-189; P29460 23-328).
T1 construct: also called hIL-23; human recombinant IL-23
T1 sequence (looked up) 1: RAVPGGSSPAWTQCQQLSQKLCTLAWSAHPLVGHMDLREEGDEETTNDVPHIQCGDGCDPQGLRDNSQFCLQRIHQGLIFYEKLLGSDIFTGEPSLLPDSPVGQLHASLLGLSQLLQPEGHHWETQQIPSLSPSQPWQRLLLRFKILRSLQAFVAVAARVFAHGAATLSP
T1 sequence (looked up) 2: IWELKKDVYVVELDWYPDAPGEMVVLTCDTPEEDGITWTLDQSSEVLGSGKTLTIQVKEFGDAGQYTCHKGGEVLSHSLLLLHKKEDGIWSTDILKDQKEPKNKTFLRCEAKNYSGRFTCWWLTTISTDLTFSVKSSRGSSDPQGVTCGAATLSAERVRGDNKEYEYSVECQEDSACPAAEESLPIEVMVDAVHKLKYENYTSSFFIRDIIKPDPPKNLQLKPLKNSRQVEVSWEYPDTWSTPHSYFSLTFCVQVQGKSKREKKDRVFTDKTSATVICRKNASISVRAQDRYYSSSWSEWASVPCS
Briefly: SPR (ProteOn XPR), human IL-23 directly immobilized, 25 C. On the procedure: The binding characteristics were characterized by Surface Plasmon Resonance (SPR). Human IL-23 was immobilized at two to four levels in one dimension of a ProteOn XPR (Bio-Rad) chip surfaces and exposed to 6 different concentrations of anti-IL-23 adnectins in the other dimension of the same SPR chip surface. This allowed kinetic determination in the absence of regeneration. Duplicate chips were used for kinetic determinations at 25° C. and 37° C. Evaluation of the kinetic parameters was performed using the Langmuir interaction model and constant parameter fitting with the ProteOn Manager software.
Even at 37° C. the off rates were close to the limit of detection for SPR technologies so it is possible that the reported dissociation constant measurements are under-estimates.

Test [2] concerns the target T1, human IL-23. Briefly: cell-based or functional assay.
Test [3] concerns the target T1, human IL-23. As to the kind of experiment: cell-based or functional assay. The source holds these as a separate data set.
Test [4] deals with T1, human IL-23. As to the kind of experiment: SPR, Adnectin captured by anti-His mAb, IL-23 injected. On the procedure: All surface plasmon experiments were conducted in HBS-EP (10 mM Hepes 150 mM NaCl 3 mM EDTA 0.05% Surfactant P20) at 25° C. IL-23 was injected over anti-His mAb captured Adnectins for 2 minutes followed by a 10 minute dissociation phase. Evaluation of the binding specificity was completed using Biacore T100 evaluation software. Additional detailed methods are described in Example 4.

B1: ATI001014 (designed binder)
chain: MGVSDVPRDLEVVAATPTSLLISWGHYPLHVRYYRITYGETGGNSPVQEFTVPPRSHTATISGLKPGVDYTITVYAVTYYAQENYKEIPISINYRTGSGC
modifications: pegylated at the C-terminal GSGC linker (Cys)
notes: not shown: his-tag
In the test with human IL-23 [1], B1 registered a dissociation constant Kd of 1.8 nM, a koff of 1.7e-05 s⁻¹ and a kon of 9400 M⁻¹ s⁻¹.

B2: ATI000934 (designed binder)
chain: MGVSDVPRDLEVVAATPTSLLISWGHYPLHLRYYRITYGETGGNSPVQEFTVPRTKYTATISGLKPGVDYTITVYAVTYYKEADYSQIPISINYRTEIDKPCQ
modifications: pegylated at the C-terminal EIDKPCQ (Cys)
notes: also called ATI 934; not shown: his-tag
Consider B2, for which, in the test with human IL-23 [1], the Kd is 1.9 nM, the koff is 1.8e-05 s⁻¹ and the kon came out at 9400 M⁻¹ s⁻¹.

B3: 1490B03 (designed binder)
chain: MGVSDVPRDLEVVAATPTSLLISWGHYPLHVRYYRITYGETGGNSPVQEFTVPSRKYTATISGLKPGVDYTITVYAVTYYKEANYREIPISINYRTEIDKPSQHHHHHH
notes: captured by anti-His mAb
On to B3, for which, in the test with human IL-23 [2], the “Kit 225 pSTAT3 IC50 (nM)” value stood at 0.3 nM. In addition, in the test with human IL-23 [3], the “IL-17 EC50” value turned out to be 1.4 nM, the “IL-22 EC50” value was determined as 1.7 nM and the “PBMNC pSTAT3 IC50 (nM)” value was 0.09 nM. This molecule returned a kon with human IL-23 [4] of 153000 M⁻¹ s⁻¹.

B4: 1572D04 (designed binder)
chain: B3 chain with L29M, S54P, K56R, K81E, E82Q, A83P, N84I, R86A, E87T
notes: captured by anti-His mAb
Consider B4, for which, in the test with human IL-23 [2], the “Kit 225 pSTAT3 IC50 (nM)” value stood at 4 nM. Moreover, in the test with human IL-23 [4], the Kd came out at 2.9 nM, the koff was found to be 0.000294 s⁻¹ and the kon was determined as 103000 M⁻¹ s⁻¹.

B5: 1572F05 (designed binder)
chain: B3 chain with V31I, S54R, R55Q, K81N, N84D, R86S, E87Q
notes: captured by anti-His mAb
As to B5, in the test with human IL-23 [2], the “Kit 225 pSTAT3 IC50 (nM)” value was 3 nM. Also, in the test with human IL-23 [4], binding was put at a Kd of 2.2 nM, the off-rate constant (koff) is 0.000285 s⁻¹ and the kon came to 132000 M⁻¹ s⁻¹.

B6: 1550 E03 (designed binder)
chain: B3 chain with V31I, S54R, R55M, K56R, Y57H, K81S, A83E, N84L, R86K, E87Y
notes: captured by anti-His mAb
In the case of B6, the “Kit 225 pSTAT3 IC50 (nM)” value with human IL-23 [2] was found to be 5.3 nM. In the test with human IL-23 [4], the Kd worked out at 1.9 nM, the koff was found to be 0.000186 s⁻¹ and the kon is 99500 M⁻¹ s⁻¹.

B7: 1571H03 (designed binder)
chain: B3 chain with S54N, K56V, K81A, E82Q, A83E, N84E, R86H, E87I
notes: captured by anti-His mAb
Regarding B7, in the test with human IL-23 [2], the “Kit 225 pSTAT3 IC50 (nM)” value is 0.4 nM. Further, in the test with human IL-23 [3], the “IL-17 EC50” value is 2.9 nM and the “IL-22 EC50” value was 2.3 nM. In the test with human IL-23 [4], this molecule gave a Kd of 3.4 nM, a koff of 0.000395 s⁻¹ and a kon of 118000 M⁻¹ s⁻¹.

B8: 1550H05 (designed binder)
chain: B3 chain with S54R, R55Q, K56I, K81N, N84D, R86S, E87Q
notes: captured by anti-His mAb
Take B8: the “Kit 225 pSTAT3 IC50 (nM)” value in the test with human IL-23 [2] came to 1.5 nM. In the test with human IL-23 [4], the affinity, expressed as Kd, was 3.3 nM; the koff came out at 0.000212 s⁻¹; the kon came to 65200 M⁻¹ s⁻¹.

B9: 1571F10 (designed binder)
chain: B3 chain with V31I, K56Y, Y57H, K81E, E82Q, A83V, N84E
notes: captured by anti-His mAb
Turning to B9, the “Kit 225 pSTAT3 IC50 (nM)” value with human IL-23 [2] is 0.1 nM. The kon with human IL-23 [4] was 268000 M⁻¹ s⁻¹.

B10: 1572G06 (designed binder)
chain: B3 chain with S54R, R55Y, K81A, E82Q, A83E, R86K
notes: captured by anti-His mAb
As for B10, the “Kit 225 pSTAT3 IC50 (nM)” value in the test with human IL-23 [2] is 0.05 nM. In addition, in the test with human IL-23 [3], the “IL-17 EC50” value is 1.6 nM, the “IL-22 EC50” value amounted to 1.9 nM and the “PBMNC pSTAT3 IC50 (nM)” value worked out at 0.21 nM. Further, the kon in the test with human IL-23 [4] was found to be 105000 M⁻¹ s⁻¹.

B11: 1572H05 (designed binder)
chain: B3 chain with V31I, S54R, R55S, K81E, E82Q, A83V, N84E
notes: captured by anti-His mAb
With B11, the “Kit 225 pSTAT3 IC50 (nM)” value with human IL-23 [2] was found to be 0.01 nM. In the test with human IL-23 [4], this molecule displayed a Kd of 0.61 nM, a dissociation rate constant (koff) of 0.00023 s⁻¹ and a kon of 375000 M⁻¹ s⁻¹.

B12: 1490H05 (designed binder)
chain: B3 chain with S54M, K56Q, Y57H, K81A, E82Q, A83E, R86K
notes: captured by anti-His mAb
For B12, in the test with human IL-23 [2], the “Kit 225 pSTAT3 IC50 (nM)” value is 0.4 nM. For the same molecule, in the test with human IL-23 [3], the “IL-17 EC50” value was determined as 1.8 nM and the “IL-22 EC50” value was determined as 2.9 nM. In addition, in the test with human IL-23 [4], binding was put at a Kd of 2.1 nM, the koff is 0.000322 s⁻¹ and the kon worked out at 156000 M⁻¹ s⁻¹.

B13: 1572B10 (designed binder)
chain: B3 chain with L29M, S54V, R55P, K56R, Y57H, K81N, N84D, R86S, E87Q
notes: captured by anti-His mAb
For B13, the “Kit 225 pSTAT3 IC50 (nM)” value with human IL-23 [2] was determined as 0.8 nM. In the test with human IL-23 [4], this molecule gave a kon of 65300 M⁻¹ s⁻¹.

B14: 1571G06 (designed binder)
chain: B3 chain with V31L, S54R, R55T, N84D, R86S, E87Q
notes: captured by anti-His mAb
With B14, the “Kit 225 pSTAT3 IC50 (nM)” value with human IL-23 [2] came to 0.3 nM. Moreover, in the test with human IL-23 [3], the “IL-17 EC50” value stood at 3.5 nM, the “IL-22 EC50” value is 5.1 nM and the “PBMNC pSTAT3 IC50 (nM)” value worked out at 0.93 nM. In the test with human IL-23 [4], this molecule registered a Kd of 1.81 nM, a koff of 0.000238 s⁻¹ and a kon of 131000 M⁻¹ s⁻¹.

B15: 1550 E06 (designed binder)
chain: B3 chain with L29M, S54P, R55P, K56R, Y57H, K81A, E82Q, A83E, R86K
notes: captured by anti-His mAb
For B15, the “Kit 225 pSTAT3 IC50 (nM)” value in the test with human IL-23 [2] worked out at 0.4 nM. Further, in the test with human IL-23 [3], the “IL-17 EC50” value came to 1.5 nM, the “IL-22 EC50” value turned out to be 2.1 nM and the “PBMNC pSTAT3 IC50 (nM)” value amounted to 1.15 nM. In addition, in the test with human IL-23 [4], binding was put at a Kd of 2.1 nM, the koff was 0.000116 s⁻¹ and the kon worked out at 55400 M⁻¹ s⁻¹.

B16: 1550C05 (designed binder)
chain: B3 chain with L29M, S54P, K56R, K81N, N84D, R86S, E87Q
notes: captured by anti-His mAb
B16: the “Kit 225 pSTAT3 IC50 (nM)” value in the test with human IL-23 [2] worked out at 16.8 nM. In the test with human IL-23 [4], this molecule registered a Kd of 2.1 nM, a koff of 0.000135 s⁻¹ and an on-rate (kon) of 65900 M⁻¹ s⁻¹.

B17: 1571G04 (designed binder)
chain: B3 chain with S54P, K56S, Y57H, K81A, E82Q, A83E, R86K
notes: captured by anti-His mAb
Consider B17, for which the “Kit 225 pSTAT3 IC50 (nM)” value with human IL-23 [2] was determined as 0.1 nM. Also, in the test with human IL-23 [3], the “IL-17 EC50” value was 1.4 nM, the “IL-22 EC50” value turned out to be 1.3 nM and the “PBMNC pSTAT3 IC50 (nM)” value was 0.23 nM. Besides, in the test with human IL-23 [4], the Kd was 2.1 nM, the off-rate constant (koff) came to 0.000361 s⁻¹ and the kon is 170000 M⁻¹ s⁻¹. In the test with human IL-23 [1], this molecule gave a Kd of 0.2 nM, a koff of 1.2e-05 s⁻¹ and a kon of 57000 M⁻¹ s⁻¹.

B18: 1572C09 (designed binder)
chain: B3 chain with L29M, V31I, S54T, R55P, Y57H, K81N, N84D, R86S, E87Q
notes: captured by anti-His mAb
For the molecule B18, the “Kit 225 pSTAT3 IC50 (nM)” value in the test with human IL-23 [2] stood at 0.5 nM. In the test with human IL-23 [3], the “IL-17 EC50” value worked out at 7.9 nM and the “IL-22 EC50” value came to 5.3 nM. This molecule displayed a kon in the test with human IL-23 [4] of 60700 M⁻¹ s⁻¹.

B19: 1550A07 (designed binder)
chain: B3 chain with L29M, S54V, R55P, K56R, K81A, E82Q, A83E, R86K
notes: captured by anti-His mAb
Take B19: the “Kit 225 pSTAT3 IC50 (nM)” value in the test with human IL-23 [2] is 1 nM. Further, in the test with human IL-23 [4], the affinity, expressed as Kd, was 1.1 nM; the koff amounted to 0.000133 s⁻¹; the kon was determined as 117000 M⁻¹ s⁻¹.
